These are literature values, as cited in paper PMC8087844.

A word on the Kd: it is a measure of binding affinity in units of concentration.

The series addresses IL2R alpha (CD25) (Homo sapiens) (UniProt P01589).
Sequence of UniProt P01589 (P01589 22-240): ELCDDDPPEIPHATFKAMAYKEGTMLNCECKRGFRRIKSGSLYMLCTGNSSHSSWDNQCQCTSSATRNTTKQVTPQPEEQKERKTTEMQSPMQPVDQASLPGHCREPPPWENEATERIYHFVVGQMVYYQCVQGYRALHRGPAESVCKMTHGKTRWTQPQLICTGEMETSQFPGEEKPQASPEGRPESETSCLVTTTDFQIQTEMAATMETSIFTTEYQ

For Daclizumab, the Kd was 300 pM.
